Test results published in patent US20190241648A1 (STATEN BIOTECHNOLOGY B V, published 2019).

Experiments:
[1] = target: T1, human ApoC3 (huApoC3), native protein purified from human serum (human, UniProt P02656 21-99); assay: cell-based or functional assay
[2] = target: T1, human ApoC3 (huApoC3), native protein …; assay: SPR Biacore, huApoC3 on chip, scFv-Fc as analyte
Method: This example describes characterization of anti-ApoC3 antibodies regarding their affinity to ApoC3 under neutral conditions using an SPR-based assay using a Biacore 3000 instrument (Biacore AB). Native huApoC3 protein was immobilized on a CM5 chip. The immobilization was performed in accordance with the method provided by Biacore using the NHS/EDC kit (Biacore AB): after activation of the chip, a solution of 60 μg/ml of human ApoC3 in 10 mM acetate buffer with pH of 4.5 was prepared and injected until the surface density reached approximately 1000 RU. Capturing of the human ApoC3 on the streptavidin coated chip (SA) was performed at pH 7.4 in accordance with a method provided by Biacore via injection of 20 μl 10 μg/ml biotinylated human ApoC3 thereby reaching the surface density of approximately 500 RU. […] After the dissociation, the flow cell surfaces were regenerated by injecting 10 μl of 10 mM […]/1 M NaCl and 10 μl of 10 mM glycine at pH1.5. The resulting sensorgrams were analyzed using the BIAevaluation 4.1 software using Langmuir 1:1 binding model to derive binding kinetics. Data was zero adjusted and the reference cell sensorgrams were subtracted.
A number of scFv-Fc antibodies were examined in this assay. The association rate (ka), dissociation rate (kd), analyte binding capacity (Rmax), equilibrium association constant (KA) and equilibrium dissociation constant (KD) of these antibodies are shown in Table 5.

[3] = target: T1, human ApoC3 (huApoC3), native protein …; assay: SPR Biacore, huApoC3 on chip, IgG1 as analyte
[4] = target: cynomologus monkey ApoC3 (cynoApoC3), native protein (Macaca fascicularis (cynomologus monkey), UniProt P18659 21-99); assay: SPR (Biacore 3000), antibody IgG1 amine-coupled to a CM5 chip, native ApoC3 injected, HBS-EP pH 7.4
Sequence of cynomologus monkey ApoC3 (cynoApoC3), native protein (P18659 21-99 limits assumed): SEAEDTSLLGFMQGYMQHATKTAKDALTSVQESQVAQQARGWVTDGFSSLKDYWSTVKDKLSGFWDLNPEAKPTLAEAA
Method: The SPR experiments were carried out using a Biacore 3000 instrument (GE Healthcare). Flow cells of CM5 sensor chips were coupled with the generated IgG formatted antibodies of 14C7, 5A7, 5E5 and 6A6 (˜2000 RU) using the amine coupling chemistry. The coupling was performed using the adaptive immobilization Biacore protocol aiming 2000 RU as coating density, using 10 μg/ml antibody solutions in 10 mM sodium acetate buffer at pH 5.0. For all experiments the HBS-EP buffer at pH 7.4 was used as running and dilution buffer. 60 μl of human native ApoC3 or cynomologus monkey native ApoC3 protein preparations in the concentration range of 10 to 200 μg/ml were injected over all flow channels, followed by an off-rate wash at pH7.4 for 5 min. All injections were performed at a constant flow rate of 30 μl/min at 25° C. After the dissociation, the flow cell surfaces were regenerated by injecting 10 μl of 10 mM NaOH/1 M NaCl and 10 μl of 10 mM glycine at pH1.5. The resulting sensorgrams after blank channel subtraction were used to confirm cross-species reactivity and to evaluate affinity.

T1 sequence (P02656 21-99): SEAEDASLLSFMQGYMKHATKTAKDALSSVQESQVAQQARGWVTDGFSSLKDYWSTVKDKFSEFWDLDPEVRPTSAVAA

Row | attenuation of the ability of ApoC3 to inhibit VLDL uptake by HepG2 cells [1] [%] | Ka [2] [M⁻¹] | Kd [2] [nM] | koff [2] [s⁻¹] | kon [2] [M⁻¹ s⁻¹] | EC50, attenuation of ApoC3-mediated LPL inhibition (NEFA production) [1] [nM] | Ka [3] [M⁻¹] | Kd [3] [nM] | koff [3] [s⁻¹] | kon [3] [M⁻¹ s⁻¹] | binding result [4] | Binder
1 | ~75 | 1.72e+09 | 0.581 | 9.44e-05 | 163000 |  |  |  |  |  |  | 8F4 scFv-Fc (Fc fusion, scFv-Fc format) VH: QLQLVESGGGLVQPGGSLRLSCAASGFAFSSYSMYWVRQAPGKGLERVAAIKTDGGSTNYADSVKGRFTVSRDNAKNTLYLQMNSLKSEDTAVYYCVIQGYGTWGQGTQVTVSS VL: DLVLTQIPGSLSVVPGESASISCKASQSLVHSDGKTYLYWLLQKPGQSPQRLIYQVSNRGSGVPDRFTGSGSGTDFTLKISGVEAEDAGVYYCAQATYYGHSFGSGTRLEIK
2 |  |  |  |  |  | ~2000 | 1.46e+09 | 0.684 | 5.61e-05 | 82000 | binds | 14C7 IgG1 (antibody, V domains shown, IgG1 format) VH: QVQVQESGPGLVKPSQTLSLTCTVSGGSITTNSYYWSWIRQPPGKGLEWMGAIDYSGDTYYSPSLKSRTSISRDTSKNQFTLQLTSVTPEDTAVYYCVSRIPTGEYWGQGTQVTVSS VL: QTVVTQEPSLSVSPGGTVTLTCGLNSGSVTSSNYPDWYQQTPGQAPRLLIYNTNSRHSGVPSRFSGSISGNKAALTITGAQPEDEADYYCALYMGSDSVVFGGGTHLTVL
3 | ~70 | 2.58e+09 | 0.388 | 6.64e-05 | 171000 |  |  |  |  |  |  | 10B6 scFv-Fc (Fc fusion, scFv-Fc format) VH: EVQLVESGGGLVQPGGSLRLSCAASGFTFSSYAMRWVRQAPGKGLEWISSINIDGGSTRYTDSVQGRFTVSRDNAKNTLYLQMNNLKPEDTGIYYCTIQGYIYWGQGTQVTVSS VL: ATMLTQSPGSLSIVPGESASISCKASQSLVHSNGVIYFYWLLQKPGQSPQRLIYQVSNRDSGVPDRFTGSGSGTDFTLKISGVKAEDAGVYYCAQGTYYPHSFGSGTRLQIK
4 | ~100 | 3.02e+09 | 0.331 | 0.000351 | 1.06e+06 |  |  |  |  |  |  | 5A4 scFv-Fc (Fc fusion, scFv-Fc format) VH: QLQLVESGGGLVQPGGSLRLSCVASGFAFSHYTMYWVRQAPVRGLERVSAISGGGDRTIYTDSVKGRFTISRDNAANALYLQMNSLQPEDTAVYYCVAQGYEYWGQGTRVTVSS VL: ATMLTQSPGSLSVVPGESASISCKAIQSLVHTDGKTYLYWFLQKPGQSPQRLIYQVSNRGSGVPDRFTGSGSGTDFTLKISGVKAEDAGVYYCAQGTYSSKTFGQGTKLEIK
5 | ~75 | 6.41e+09 | 0.156 | 0.000186 | 1.19e+06 |  |  |  |  |  |  | 6A6 scFv-Fc (Fc fusion, scFv-Fc format) VH: EVQLVESGGGLVQPGGSLRLSCAASGFTFSSYAGRWVRQVPGKGLEWVSSINAGGGSTSYADSVKGRFTISRDNAKNTLYLQMNSLKPEDTAKYYCTQNSYRYWGQGTRVAVSS VL: DVVLTQTPGSLSVVPGESASISCKASQSLIHTDGKTYLYWLLQKPGQRPQLLIYQVSSHESGVPDRFTGSGSGTDFTLKISGVKAEDAGVYYCAQATYNPRTFGQGTKLEIK

The remaining lines, values behind:

Row | Binder | attenuation of the ability of ApoC3 to inhibit VLDL uptake by HepG2 cells [1] [%] | Ka [2] [M⁻¹] | Kd [2] [nM] | koff [2] [s⁻¹] | kon [2] [M⁻¹ s⁻¹] | EC50, attenuation of ApoC3-mediated LPL inhibition (NEFA production) [1] [nM] | Ka [3] [M⁻¹] | Kd [3] [nM] | koff [3] [s⁻¹] | kon [3] [M⁻¹ s⁻¹] | binding result [4]
6 | 5E5 scFv-Fc (Fc fusion, scFv-Fc format) VH: QLQLVESGGGLVQPGGSLRLSCAASGFTFGTYSMRWVRQVPRKALEWVSSISTDGGGTAYRDSVKGRFTISRDNAKNTLYLQMNNLKPEDTAIYYCVIAGYSDWGQGTQVTVSS VL: ATMLTQSPGSLSVVPGESASISCKTSQGLVHSDGKTYFYWFLQKPGQSPQQLIYQVSNRASGVPDRFTGSGSGTDFTLKISGVKAEDAGVYYCAQGTYYPHTFGSGTRLEIK | ~100 | 5.94e+08 | 1.68 | 0.000437 | 260000 |  |  |  |  |  | 
7 | 8H4 scFv-Fc (Fc fusion, scFv-Fc format) VH: ELQLVESGGGLVQPGRSLRLSCAASGFTFSSYSMRWVRQTPGKGLEWVTSINSDGGSTKYSDSVKGRFTISRDNAKNTLYLQMNNVKPEDTAIYYCAIQGYTDWGQGTQVTVSS VL: DVVLTQTPGSLSVVPGESASISCKVSQSLVHSDGKTYLYWLLQKPGQSPQRLIYQVSNRDSGVPDRFTGSGSGTDFTLKISGVKAEDAGVYYCAQGTYNPYTFGSGTRLEIK | ~70 | 2.52e+09 | 0.397 | 7.44e-05 | 187000 |  |  |  |  |  | 
8 | 5A7 IgG1 (antibody, V domains shown, IgG1 format) VH: EVQVQESGPGLVKPSQTLSLTCTVSGASITNRRYAWTWIRQPPGKGLEWMGVIVYDGNTHVSPSLRSRTSISRDTSKNQFSLQLSSLTPEDTAVYYCARVLLLRDPLSLDYWGQGTQVTVSS VL: SSALTQPPSMSGTLGKTLTISCAGTSSDIGAYNFVSWYQQLPGTAPKLLIYDIDKRASGIPDRFSGSKSGNTASLSISGLQSEDEADYYCAAYGSRDNVVFGGGTHLTVL |  |  |  |  |  |  |  |  |  |  | binds
9 | 6A6 IgG1 (antibody, V domains shown, IgG1 format) VH: EVQLVESGGGLVQPGGSLRLSCAASGFTFSSYAGRWVRQVPGKGLEWVSSINAGGGSTSYADSVKGRFTISRDNAKNTLYLQMNSLKPEDTAKYYCTQNSYRYWGQGTRVAVSS VL: DVVLTQTPGSLSVVPGESASISCKASQSLIHTDGKTYLYWLLQKPGQRPQLLIYQVSSHESGVPDRFTGSGSGTDFTLKISGVKAEDAGVYYCAQATYNPRTFGQGTKLEIK |  |  |  |  |  | > 5000 |  |  |  |  | binds
10 | 8A4 scFv-Fc (Fc fusion, scFv-Fc format) VH: QVQLVESGGGLVQPGGSLKVSCTASGFTFNNYAMRWVRQAEGKGLEWVSSIDSGGDRTKYGDSVKGRFSISRDNAKNTVYLQMDALKPEDTGVYYCVSQGYIFWGQGAQVTVSS VL: ATMLTQSPGSLSVVPGESASISCKASQSLVHSDGKTYLYWLLQKPGQRPQLLIYQVSNHESGVPDRFTGSGSGTDYTLKISGVKAEDAGVYYCAQATYYPLTFGQGTKVELK | ~40 | 4.27e+09 | 0.234 | 7.02e-05 | 300000 |  |  |  |  |  | 
11 | 5A11 scFv-Fc (Fc fusion, scFv-Fc format) VH: QVQVQESGPGLVKPSQTLSLTCTVSGVSITTRYYAWSWIRQPPGKGLEWMGVIAYDGSTYYSPSLKSRTSISRDTSKNQFSLQLTSVTPEDTAVYYCARVRLIEAPYEYDYWGQGTQVTVSS VL: QAVVTQEPSLSVSPGGTVTLTCGLSSGSVTTRSYPGWFQQTPGQAPRSLIHSTSSRHSGIPTRFSGSISGNKAALTITGAQPEDEADYYCALDIGSYIVFGGGTHLTVL | ~55 | 2.15e+09 | 0.465 | 0.000668 | 1.44e+06 |  |  |  |  |  | 
